Experimental data taken from patent US10253076B2, “Peptides and combination of peptides for use in immunotherapy against ovarian cancer and other cancers” (immatics biotechnologies GmbH, priority 2015, dated 2019).

Biological target: HLA-A*02:01 (Homo sapiens, UniProt P04439, D140Y/D185E/D98H/E176V/E277Q/G131W/G231S/I119V/I121R/I166T/I218V/L300P/L318F/N151K/N90K/P208A/P217A/Q86G/Q94H/R138H/R169H/T345S)
Assay: MHC binding assay (UV-ligand exchange, beta2m ELISA, peptide exchange yield)
Conditions: binding of HLA-class I restricted peptides to HLA-A*02:01, ranged by peptide exchange yield (UV-ligand exchange, β2m ELISA)
In short: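 Peptide–HLA-A*02:01 complexes made by UV-mediated exchange of a photocleavable peptide with the test peptide. Exchange products diluted 100-fold on streptavidin-coated plates, 1 h at 37°C, then HRP anti-β2m 1 h at 37°C; TMB read at 450 nm to give exchange yield.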

| Peptide exchange | Substance |
| --- | --- |
| ″++″ (≥20% = ++) | 455 (SLLKEPQKVQL; listed as Homo sapiens) [compound 455] |
| ″+++″ (≥50% = +++) | 456 (LLIGHLERV; listed as Homo sapiens) [compound 456] |
| ″+++″ (≥50% = +++) | 457 (SLLPGNLVEKV; listed as Homo sapiens) [compound 457] |
| ″++″ (≥20% = ++) | 458 (SLIDKLYNI; listed as Homo sapiens) [compound 458] |
| ″++″ (≥20% = ++) | 459 (ALITEVVRL; listed as Homo sapiens) [compound 459] |
| ″++″ (≥20% = ++) | 461 (VMFRTPLASV; listed as Homo sapiens) [compound 461] |
| ″+++″ (≥50% = +++) | 462 (KLAKQPETV; listed as Homo sapiens) [compound 462] |
| ″+++″ (≥50% = +++) | 463 (SLVESHLSDQLTL; listed as Homo sapiens) [compound 463] |
| ″+++″ (≥50% = +++) | 464 (ALNDCIYSV; listed as Homo sapiens) [compound 464] |
| ″+++″ (≥50% = +++) | 465 (QLCDLNAEL; listed as Homo sapiens) [compound 465] |
| ″++++″ (≥75% = ++++) | 466 (VLIANLEKL; listed as Homo sapiens) [compound 466] |
| ″+++″ (≥50% = +++) | 467 (FLAKDFNFL; listed as Homo sapiens) [compound 467] |
| ″+++″ (≥50% = +++) | 468 (YLRSVGDGETV; listed as Homo sapiens) [compound 468] |
| ″+++″ (≥50% = +++) | 469 (YLASDEITTV; listed as Homo sapiens) [compound 469] |
| ″+++″ (≥50% = +++) | 471 (YLYNNMIAKI; listed as Homo sapiens) [compound 471] |
| ″+++″ (≥50% = +++) | 472 (KLLEVSDDPQV; listed as Homo sapiens) [compound 472] |
| ″+++″ (≥50% = +++) | 473 (AMATESILHFA; listed as Homo sapiens) [compound 473] |
| ″+++″ (≥50% = +++) | 474 (YLDPALELGPRNV; listed as Homo sapiens) [compound 474] |
| ″+++″ (≥50% = +++) | 475 (LLLNEEALAQI; listed as Homo sapiens) [compound 475] |
| ″+++″ (≥50% = +++) | 476 (ALMERTGYSMV; listed as Homo sapiens) [compound 476] |

| Peptide exchange | Substance |
| --- | --- |
| ″+++″ (≥50% = +++) | 477 (ALLPASGQIAL; listed as Homo sapiens) [compound 477] |
| ″+++″ (≥50% = +++) | 478 (YLLHEKLNL; listed as Homo sapiens) [compound 478] |
| ″+++″ (≥50% = +++) | 479 (SLFGNSGILENV; listed as Homo sapiens) [compound 479] |
| ″+++″ (≥50% = +++) | 480 (ALLEDSCHYL; listed as Homo sapiens) [compound 480] |
| ″+++″ (≥50% = +++) | 481 (GLIEDYEALL; listed as Homo sapiens) [compound 481] |
| ″+++″ (≥50% = +++) | 484 (SLIEKVTQL; listed as Homo sapiens) [compound 484] |
| ″+++″ (≥50% = +++) | 485 (NVPDSFNEV; listed as Homo sapiens) [compound 485] |
| ″+++″ (≥50% = +++) | 486 (AVMESIQGV; listed as Homo sapiens) [compound 486] |
| ″+++″ (≥50% = +++) | 487 (LLINSVFHV; listed as Homo sapiens) [compound 487] |
| ″+++″ (≥50% = +++) | 488 (FLAEDPKVTL; listed as Homo sapiens) [compound 488] |
| ″+++″ (≥50% = +++) | 490 (FLLQHVQEL; listed as Homo sapiens) [compound 490] |
| ″++″ (≥20% = ++) | 491 (GLNDRSDAV; listed as Homo sapiens) [compound 491] |
| ″+++″ (≥50% = +++) | 492 (SLFDGFADGLGV; listed as Homo sapiens) [compound 492] |
| ″+++″ (≥50% = +++) | 493 (GLLGEKTQDLIGV; listed as Homo sapiens) [compound 493] |
| ″++″ (≥20% = ++) | 494 (ALQPEPIKV; listed as Homo sapiens) [compound 494] |
| ″+++″ (≥50% = +++) | 495 (FIFSEKPVFV; listed as Homo sapiens) [compound 495] |
| ″+++″ (≥50% = +++) | 496 (FLVEKQPPQV; listed as Homo sapiens) [compound 496] |
| ″+++″ (≥50% = +++) | 497 (GLLEKLTAI; listed as Homo sapiens) [compound 497] |
| ″+++″ (≥50% = +++) | 498 (KLWTGGLDNTV; listed as Homo sapiens) [compound 498] |
| ″+++″ (≥50% = +++) | 500 (SLMEDQVLQL; listed as Homo sapiens) [compound 500] |

Further lines, the substance ahead of its results:

| Substance | Peptide exchange |
| --- | --- |
| 398 (KLLEEDGTIITL; listed as Homo sapiens) [compound 398] | ″++″ (≥20% = ++) |
| 399 (YLFEPLYHV; listed as Homo sapiens) [compound 399] | ″+++″ (≥50% = +++) |
| 400 (SLLTEQDLWTV; listed as Homo sapiens) [compound 400] | ″++″ (≥20% = ++) |
| 401 (ILLDDTGLAYI; listed as Homo sapiens) [compound 401] | ″+++″ (≥50% = +++) |
| 402 (VLFSGALLGL; listed as Homo sapiens) [compound 402] | ″++″ (≥20% = ++) |
| 403 (KLYDRILRV; listed as Homo sapiens) [compound 403] | ″++″ (≥20% = ++) |
| 405 (ALYDVFLEV; listed as Homo sapiens) [compound 405] | ″++″ (≥20% = ++) |
| 407 (YLMDLINFL; listed as Homo sapiens) [compound 407] | ″+++″ (≥50% = +++) |
| 408 (VLDDSIYLV; listed as Homo sapiens) [compound 408] | ″++″ (≥20% = ++) |
| 409 (LLDAMNYHL; listed as Homo sapiens) [compound 409] | ″++″ (≥20% = ++) |
| 412 (YLDDLNEGVYI; listed as Homo sapiens) [compound 412] | ″++″ (≥20% = ++) |
| 426 (RLADKSVLV; listed as Homo sapiens) [compound 426] | ″+++″ (≥50% = +++) |
| 427 (ALLPLSPYL; listed as Homo sapiens) [compound 427] | ″+++″ (≥50% = +++) |
| 428 (KLGHTDILVGV; listed as Homo sapiens) [compound 428] | ″++″ (≥20% = ++) |
| 429 (GLVNDLARV; listed as Homo sapiens) [compound 429] | ″++″ (≥20% = ++) |
| 430 (HLYSSIEHLTT; listed as Homo sapiens) [compound 430] | ″+++″ (≥50% = +++) |
| 431 (SLVNVVPKL; listed as Homo sapiens) [compound 431] | ″++″ (≥20% = ++) |
| 432 (TLIEESAKV; listed as Homo sapiens) [compound 432] | ″++″ (≥20% = ++) |
| 433 (AMLNEPWAV; listed as Homo sapiens) [compound 433] | ″+++″ (≥50% = +++) |

| Substance | Peptide exchange |
| --- | --- |
| 434 (KVSNSGITRV; listed as Homo sapiens) [compound 434] | ″++″ (≥20% = ++) |
| 436 (HLAEVSAEV; listed as Homo sapiens) [compound 436] | ″+++″ (≥50% = +++) |
| 437 (SMAPGLVIQAV; listed as Homo sapiens) [compound 437] | ″+++″ (≥50% = +++) |
| 438 (KLLPLAGLYL; listed as Homo sapiens) [compound 438] | ″++++″ (≥75% = ++++) |
| 439 (YLLQEIYGI; listed as Homo sapiens) [compound 439] | ″+++″ (≥50% = +++) |
| 440 (ALADGVTMQV; listed as Homo sapiens) [compound 440] | ″++″ (≥20% = ++) |
| 441 (ALLENPKMEL; listed as Homo sapiens) [compound 441] | ″+++″ (≥50% = +++) |
| 442 (GLLGGGGVLGV; listed as Homo sapiens) [compound 442] | ″+++″ (≥50% = +++) |
| 444 (GLLRDEALAEV; listed as Homo sapiens) [compound 444] | ″+++″ (≥50% = +++) |
| 446 (QLIPALAKV; listed as Homo sapiens) [compound 446] | ″+++″ (≥50% = +++) |
| 447 (QLVPALAKV; listed as Homo sapiens) [compound 447] | ″++″ (≥20% = ++) |
| 448 (NLLETKLQL; listed as Homo sapiens) [compound 448] | ″+++″ (≥50% = +++) |
| 449 (KLAEGLDIQL; listed as Homo sapiens) [compound 449] | ″+++″ (≥50% = +++) |
| 450 (FMIDASVHPTL; listed as Homo sapiens) [compound 450] | ″+++″ (≥50% = +++) |
| 451 (LLLLDTVTMQV; listed as Homo sapiens) [compound 451] | ″++″ (≥20% = ++) |
| 452 (ILLEHGADPNL; listed as Homo sapiens) [compound 452] | ″+++″ (≥50% = +++) |
| 453 (KLLEATSAV; listed as Homo sapiens) [compound 453] | ″++″ (≥20% = ++) |
| 454 (KLPPPPPQA; listed as Homo sapiens) [compound 454] | ″+++″ (≥50% = +++) |
